Experiments:
[1] = target: human dopamine D1A receptor (human) (UniProt P21728); experiment: cell-based or functional assay
[2] = target: human adenosine A2a receptor (ADORA2A) (human) (UniProt P29274); experiment: cell-based or functional assay
Chain of human adenosine A2a receptor (ADORA2A) (human) (P29274 whole entry): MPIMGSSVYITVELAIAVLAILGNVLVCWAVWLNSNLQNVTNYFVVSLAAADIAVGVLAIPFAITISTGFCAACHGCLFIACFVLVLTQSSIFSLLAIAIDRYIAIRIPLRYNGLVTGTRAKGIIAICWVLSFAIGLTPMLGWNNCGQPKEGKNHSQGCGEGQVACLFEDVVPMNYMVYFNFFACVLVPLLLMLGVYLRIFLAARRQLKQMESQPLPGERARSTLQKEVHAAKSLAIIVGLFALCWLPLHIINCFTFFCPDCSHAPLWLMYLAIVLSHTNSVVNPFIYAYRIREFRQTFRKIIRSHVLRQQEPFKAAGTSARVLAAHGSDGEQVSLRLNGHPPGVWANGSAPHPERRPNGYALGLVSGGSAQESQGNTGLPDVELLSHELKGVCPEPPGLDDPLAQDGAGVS

Chain of human Golf protein (P38405 2-381 limits assumed): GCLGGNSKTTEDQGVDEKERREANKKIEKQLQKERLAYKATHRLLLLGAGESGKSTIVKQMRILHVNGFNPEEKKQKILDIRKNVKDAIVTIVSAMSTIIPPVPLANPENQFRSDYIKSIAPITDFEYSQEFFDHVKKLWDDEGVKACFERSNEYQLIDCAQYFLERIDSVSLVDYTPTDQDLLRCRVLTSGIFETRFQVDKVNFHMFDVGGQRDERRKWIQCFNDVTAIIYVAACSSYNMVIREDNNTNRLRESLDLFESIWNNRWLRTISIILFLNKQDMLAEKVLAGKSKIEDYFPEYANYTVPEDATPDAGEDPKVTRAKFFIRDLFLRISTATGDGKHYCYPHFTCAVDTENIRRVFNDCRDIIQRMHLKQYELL
Chain of human dopamine D1A receptor (human) (P21728 whole entry): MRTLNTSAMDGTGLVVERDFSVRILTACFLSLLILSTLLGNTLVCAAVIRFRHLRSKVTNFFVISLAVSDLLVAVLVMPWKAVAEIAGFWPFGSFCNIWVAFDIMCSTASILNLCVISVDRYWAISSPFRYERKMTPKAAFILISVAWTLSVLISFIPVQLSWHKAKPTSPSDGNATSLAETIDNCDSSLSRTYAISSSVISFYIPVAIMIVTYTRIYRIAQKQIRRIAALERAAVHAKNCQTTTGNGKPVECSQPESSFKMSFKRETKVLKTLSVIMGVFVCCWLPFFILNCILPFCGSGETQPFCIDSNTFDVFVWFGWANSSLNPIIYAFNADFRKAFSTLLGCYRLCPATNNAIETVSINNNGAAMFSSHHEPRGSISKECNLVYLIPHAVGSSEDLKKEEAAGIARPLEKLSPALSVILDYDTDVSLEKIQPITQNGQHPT

Substance: human Golf protein (from UniProt P38405 2-381)
- efficacy (Emax) of dopamine-induced [35S]-GTPγS binding, membranes of Sf9 cells co-expressing DRD1 and Golf [1]: 231%
- induction of GTPγS agonist signal, A2a receptor co-expressed with Golf in Sf9 cells [2]: 0.2

Reference: patent US20070254313A1, “Gnal Splice Variant and Uses Thereof” (AstraZeneca AB, priority 2003, published 2007)
